Reference: patent US12590147

How the values were obtained:
[1] = target: mix of 3 carriers alone (BSA + OVA + KLH) (bovine; keyhole limpet) (UniProt P02769); assay: monoclonal phage ELISA, negative control coating with carriers alone, replicate 1
[2] = target: mix of 3 carriers alone (BSA + OVA + KLH) (bovine; keyhole limpet) (UniProt P02769); assay: monoclonal phage ELISA, negative control coating with carriers alone, replicate 2

Chain of mix of 3 carriers alone (BSA + OVA + KLH) (bovine; keyhole limpet) (P02769 25-607, chain 1 of 2): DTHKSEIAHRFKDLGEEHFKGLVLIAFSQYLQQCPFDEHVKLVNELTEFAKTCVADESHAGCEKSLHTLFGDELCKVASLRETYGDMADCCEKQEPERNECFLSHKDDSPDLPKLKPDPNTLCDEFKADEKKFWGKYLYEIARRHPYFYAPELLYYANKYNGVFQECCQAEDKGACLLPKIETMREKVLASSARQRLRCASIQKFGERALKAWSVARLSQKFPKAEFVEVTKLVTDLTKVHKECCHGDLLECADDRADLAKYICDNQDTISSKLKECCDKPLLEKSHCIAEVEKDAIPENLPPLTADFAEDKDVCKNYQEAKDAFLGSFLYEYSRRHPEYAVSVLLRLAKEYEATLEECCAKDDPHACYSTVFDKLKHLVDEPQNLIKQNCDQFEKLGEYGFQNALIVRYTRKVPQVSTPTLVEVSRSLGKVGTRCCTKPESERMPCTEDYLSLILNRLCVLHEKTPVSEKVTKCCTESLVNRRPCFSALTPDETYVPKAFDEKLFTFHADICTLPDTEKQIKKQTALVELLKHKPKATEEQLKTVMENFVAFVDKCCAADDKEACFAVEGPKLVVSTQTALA
Chain of mix of 3 carriers alone (BSA + OVA + KLH) (bovine; keyhole limpet) (P01012 2-386, chain 2 of 2, further chain): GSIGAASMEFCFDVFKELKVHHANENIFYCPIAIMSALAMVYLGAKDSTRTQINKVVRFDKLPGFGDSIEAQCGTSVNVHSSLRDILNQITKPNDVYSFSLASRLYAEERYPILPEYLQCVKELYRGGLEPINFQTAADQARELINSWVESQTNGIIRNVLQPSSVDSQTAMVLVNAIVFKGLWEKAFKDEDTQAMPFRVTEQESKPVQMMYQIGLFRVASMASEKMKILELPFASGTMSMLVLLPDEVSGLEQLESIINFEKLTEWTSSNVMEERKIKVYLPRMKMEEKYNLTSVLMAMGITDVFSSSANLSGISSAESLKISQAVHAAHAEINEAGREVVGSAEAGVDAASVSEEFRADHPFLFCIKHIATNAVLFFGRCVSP

B1: R4P1-C1 (phage Fab clone) (Fab, V domains shown)
VH: QVQLQQSGPGLVKPSQTLSLTCAISGDSVSSNSAAWNWIRQSPSRGLEWLGRTYYRSKWYNDYAVSVKSRITINPDTSKNQFSLQLNSVTPEDTAVYYCARDDYDPVGMYAFDIWGQGTLVTVSS
VL: LPVLTQPPSASGTPGQRVTISCSGSSSNIGSNTVNWYQQLPGTAPKLLIYRNTQRPSGVPDRFSGSKSGTSASLAISGLQSEDEADYYCEAWDDSMRGAAFGGGTQLTVL
ELISA signal [1]: 0.06
ELISA signal [2]: 0.06
